{"source": "the DeepSol protein solubility set", "data": [{"experiment": "soluble on expression in E. coli; label from the status in PepcDB or PDB records", "values": [{"sequence": "MRVALTIAGSDSGGGAGVQADLKVFFRFGVYGTSALTLVTAQNTLGVQRVHLLPPEVVYAQIESVAQDFPLHAAKTGALGDAAIVEAVAEAVRRFGVRPLVVDPVMVAKSGDPLLAKEAAAALKERLFPLADLVTPNRLEAEALLGRPIRTLKEAEEAAKALLALGPKAVLLKGGHLEGEEAVDLLATRGGVLRFSAPRVHTRNTHGTGCTLSAAIAALLAKGRPLAEAVAEAKAYLTRALKTAPSLGHGHGPLDHWA", "soluble on expression in E. coli": "soluble"}, {"sequence": "MSKPTLAVALIVKNEARHLDECLQTVHDWVDEIVVLDSGSHDETEQVARRYTEKFYVNAKWPGFGLQRQLAQSYVQSDYVLWLDADERVTPELKQSILQAVAANKPDTLYQFARLSWVFGRFIRHSGWYPDRVLRLYPTQLTRYNDALVHEKVHVEPSMKVETLAGDAIHYTYNDVHHYLVKSAGYAKAWADQRQAKGKKASLSQGIVHAVGCFLKMYLLKRGFLDGKQGFLIALLSAHSTFVKYADLWARDNDEHYKR", "soluble on expression in E. coli": "not soluble"}, {"sequence": "MGSDKIHHHHHHMTDEHSVFEYKIGLLAPSRVGKSTLIAGLLTEGQQQLAQDSSVHLLTADRPTKNRLAATYNLVSGALKARMFEPGLVPSTSDPSWFRLLLEARGQDLQIRFDILDYPGAWLEGAGEGTEDEQKWNECEAFLADSSVLILPIDSVLLMDSGDDHAHLLASHLSVFQINQAVLRWAKNRRELSGEPAMIVFCPVKCETYLSDSGSLQDHAGTLRGKVVDQFSDVLKTVRDAAPHAAVRYLPIDTFGCVELVSARWIHAQGSPGGEMLVPKYRVRPPGQIVRKGLDDLLTLLCRQLVDTARAQSERTTAAKQTAALNSRNHAELREGFFRDLWLNFNGERNRRRHTAATDERLFAMSQRTTQSLFDVLTALAGRESGPRLHHLS", "soluble on expression in E. coli": "not soluble"}, {"sequence": "MGSDKIHHHHHHMFREDRKGLIVVEVENQDLIKTIQVKFPRLSKGQKLIAEYILKHYDKAAFLTAAKLGSSVGVSESTVVRFANELGFSGYPKLQKALQELIKNKLTTVQRIELSNDFIDQESTLKSVLKSDMENIRYTLEKINHKTFDDVVDSIFSAKRIYILGLRSSTPIAEFLGFYLNLILDNAKIISYGVSDIFEQMMNVAKGDLVIGIGFPRYAARTIEALDYAQNNEATVVAITDSLLSPLAARANHTLIAQSNMASFVDSLVAPLSVVNALIIAVGLREKDKISSTFSKLEHIWQEYEVYSYKERRRD", "soluble on expression in E. coli": "not soluble"}, {"sequence": "MQSWKERRDFNIVKQDLDFSCGAASVVTLLNNFYGQKLTEEDVLKKLDKEQMPASFEDMRRIMPDLGFEAKGYALSFEQLAQLQIPVIVYLKYRKDDHFSVLRGIDGNTVLLADPSLGHVSMSRAQFLDAWQTREGNLAGKILAVVPKGRDAGGDKAFFTRSPKRQTEFAVGQVKWWRAY", "soluble on expression in E. coli": "not soluble"}, {"sequence": "MNSFYSQEELKKIGFLSVGKNVLISKKASIYNPGVISVGNNVRIDDFCILSGKVTIGSYSHIAAYTALYGGEVGIEMYDFANISSRTIVYAAIDDFSGNALMGPTIPNQYKNVKTGKVILKKHVIIGAHSIIFPNVVIGEGVAVGAMSMVKESLDDWYIYVGVPVRKIKA", "soluble on expression in E. coli": "soluble"}, {"sequence": "MVAATPVQFVLPPLPEAPTAAAARLDGLSLADSGGGAGVRTVRLREALYGAGPYESADASMAELAAQIASLDRDKARSALAAVWQATVLGRPNRAANQVALAAAGGVLLLVDVAVQRLAGVRLEGGARSCSREDEEEAVMALLVLENLSCNVSLHRDMVLGAPGPHLLQMLVALAKDNTAAAAVRVNAAKVLVNLTFSQIELAAAATEAGALPAAVSLLQAGQKQALAETDAEVALGLHRQGAWLLSHLTAGQGCQARELLAAQPQALARIKDLLTTSRDTATLIRCCEVVCNLARGDVGPHAELIRAGLVQVLLKLVEVETEAPAPTGAARSEGSSVDLLLPALTALAALAAGGAACARGLLAHAPLLRTLTGALEWSNLISRDHDLSRVMLAAHSLVYVLGRFALRNRIVVPGVRAGVVVDAGMGATPAAATPQAQQVLQESGYVSFAAAMAALGLQQPRYTAAILGTELESGPHSAVASAAYQVNTELLPMMRHDNARMVVNTCARLYQIAVCLRDSPECRSVLSNTSLSLALSDLLRSQHSSVLQAALCLTDALAALPEVVPQLAANGVLDRLCDLLHNTSAQPQEHKAGTADTAGDPLVVLLAERALVTMFLTRGQHQAE", "soluble on expression in E. coli": "not soluble"}, {"sequence": "MGHHHHHHSHMMAALSRKMRVAPFKVGPDYIDPGYHGMAAGHQGRNLDSVMCGIDLIGPLYAHGSANADIAVVEGVMGLFDGRIAQGQNTADAQAQGSSAEIAATLGLPVVLVVDVRGMSQSVGAVVRGFATADPHVRIAGVILNKVGTDRHAEVCREAVEAVGVRVLGAIP", "soluble on expression in E. coli": "not soluble"}, {"sequence": "MSLKQLFLIIGAPGSGKTTDAELIAKNNSETIAHFSTGDLLRAESAKKTERGLLIEKFTSQGELVPLEIVVETILSAIKSSGKGIILIDGYPRSVEQMQALDKELNAQNEVILKSVIEVEVSENTAKERVLGRSRGADDNEKVFHNRMRVFLDPLGEIQNFYKNKKVYKAIDGERSIEEIVGEMQEYILSFGNEGHHHHHH", "soluble on expression in E. coli": "soluble"}, {"sequence": "ADPVMLEVFNNLFMSIAEQMGYRLQNTAYSVNIKERLDFSCAIFDAAGNLIANAPHMPVHLGSMGESIKTVMRANASRMRPGDAYVVNDPYHGGTHLPDVTVITPVFDRAGRDILFFVGSRGHHADIGGTTPGSMPPDSRTVEDEGVLFTNFQLVGNGEFRDREAREILASGRWPARNPDQNIADLHAQIAANEKGVQELLRMCDHFGLDVVRAYMGHVQDNAEEAVRRVISVLKDGRYTYRLDNGAVIEVAVRVDRQARSAVVDFTGTSGQLENNFNAPGAIAVAAVLYVFRTLVDDEIPLNAGCLKPLEIIIPEGSMLRPNPPASVVAGNVETSMCIVNALYGALGVLAASQGTMNNFTFGNARYQYYETISGGTGAGPLRIDAAGPADAGFAGTSVVQAHMTNSRLTDPEVLELRFPVRLESYEIRHGSGGAGRYRGGDGGVRRVRFLEPMTAAILSNNRRHVPFGLAGGGAGAMGRNYVERADGRVEPLGPQDSAELAAGDVFVVETPGGGDYGPA", "soluble on expression in E. coli": "not soluble"}, {"sequence": "MSANNTAKNMHPETRAVGSETSSLQASQDEFENLVRNVDVKSRIMDQYADWKGVRYRLGGSTKKGIDCSGFVQRTFREQFGLELPRSTYEQQEMGKSVSRSNLRTGDLVLFRAGSTGRHVGIYIGNNQFVHASTSSGVIISSMNEPYWKKRYNEARRVLSRSLEHHHHHH", "soluble on expression in E. coli": "soluble"}, {"sequence": "MNSRQQTILQMVIDQGQVSVTDLAKATGVSEVTIRQDLNTLEKLSYLRRAHGFAVSLDSDDVETRMMSNYTLKRELAEFAASLVQPGETIFIENGSSNALLARTLGEQKKNVTIITVSSYIAHLLKDAPCEVILLGGVYQKKSESMVGPLTRQCIQQVHFSKAFIGIDGWQPETGFTGRDMMRTDVVNAVLEKECEAIVLTDSSKFGAVHSYSIGPVERFNRVITDSKIRASDLMHLEHSKLTIHVVDI", "soluble on expression in E. coli": "not soluble"}, {"sequence": "MKYMIPDEEFIRREGVPITKEEIRAVSIGKLNLNKDDVVVDVGCGSGGMTVEIAKRCKFVYAIDYLDGAIEVTKQNLAKFNIKNCQIIKGRAEDVLDKLEFNKAFIGGTKNIEKIIEILDKKKINHIVANTIVLENAAKIINEFESRGYNVDAVNVFISYAKKIPSGHMFLAKNPITIIKAVR", "soluble on expression in E. coli": "soluble"}, {"sequence": "NDDIIVNWVNRTLSEAGKSTSIQSFKDKTISSSLAVVDLIDAIQPGCINYDLVKSGNLTEDDKHNNAKYAVSMARRIGARVYALPEDLVEVKPKMVMTVFACLMGRGMKRV", "soluble on expression in E. coli": "soluble"}, {"sequence": "MEAVGADESYDGQQLYMMLVGHSRMADADRTAILGGTFTPIHNGHRALLHKAFQTASHDGSGDGHVIVGLTSPELATETRSDPTHVKQLGAYDDRRSALASELDQLGEPYTATYEIVRLDDTQGPAATRADVDALVASPEAKAQRRAYELNQQRRESGLHPLEIHTPPFVVAEDGTRISSTRIRNGEIDVHGRLLDASE", "soluble on expression in E. coli": "not soluble"}, {"sequence": "MARSITMQQRIEFGDCNPAGIVWYPNYHRWLDAASRNYFIKCGLPPWRQTVVERGIVGTPIVSCNASFVCTASYDDVLTIETCIKEWRRKSFVQRHSVSRTTPGGDVQLVMRADEIRVFAMNDGERLRAIEVPADYIELCS", "soluble on expression in E. coli": "soluble"}, {"sequence": "MLDVEVEEKAGPKGKHNKDRTVYSYGTEKTSVVLDGRKVKIERPRLCVYKIRKLTLKDSNSFSRRTR", "soluble on expression in E. coli": "not soluble"}]}]}
